We go through 30 sequences from the nanobody polyreactivity screen of Harvey et al. (2022).

The nature of the data set: yeast display, Sf9 membrane polyspecificity reagent, FACS + sequencing; frameworks hold sequencing errors. In outline: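 Nanobodies came from a synthetic yeast display library in Saccharomyces cerevisiae BJ5465, induced with galactose for 36–48 hours and stained for 1 hour at 4 °C with 10% biotinylated, detergent-solubilized Sf9 membrane reagent. Cells were enriched on streptavidin microbeads and then FACS-sorted, with low and high (top ~1%) gates set on anti-HA fluorescence for expression and streptavidin fluorescence for reagent binding. Each polyreactivity label reflects the gate a clone came from. Genes were amplified by colony PCR, sequenced by MiSeq 2 × 250 and filtered by CDR length.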
As for “QVQLVESGGGLVQAGGSLRLSCAASGSIFEPNDMGWYRQAPGKEREFVAAISGSGGSTYYADSVKGRFTISRDNAKNTVYLQINSLKPEDTAVYYCANRGKRSYFRTFYYWGHGTQVTVSS”, the “polyreactivity (PSR sort gate)” value was “high polyreactivity”.

For the sequence “QVQLVESGGGLVQAGGSLRLSCAASGSIFEPYAMGWYRTAPGKERELVAAISSGGSTNYADSVKGRFTISRDNAKNTVYLQMNSLKPEVTAVYYCAAAYYTVGWLYYDYWYPFAYYYWGQGTQVTVSS”, the “polyreactivity (PSR sort gate)” value is “low polyreactivity”.

In the case of “QVQLVESGGGLVQAGGSLRLSCAASGSIFEQYTMGWYRQAPGKERELVAAISRRYGRTYYADSVKGRFTISRDNAKNTVYLQMNSLKPEETAVYYCNTVYYGNFYSTRYDYWGHGTQVTVSS”, the “polyreactivity (PSR sort gate)” value is listed as “high polyreactivity”.

For “QVQLVESGGGLVQAGGSLRLSCAASGSIFERYAMGWYRQAPGKERELVAGISTDGSTYADSVKGRFTISRDNAKNTVYLQMNSLKPEDTAVYYCNKRRGFSAWYDYWGQGTQVTVSS”, the “polyreactivity (PSR sort gate)” value is reported as “low polyreactivity”.

Consider “QVQLVESGGGLVQAGGSLRLSCAASGSIFERYAMVWYRQAPGKERELVAAISWSGSSTYYADSVKGRFTISRDNAKNTVYLQMNSLKPEDTAVYYCNKVWIDTGMEYWGQGTQVTVSS”, for which the “polyreactivity (PSR sort gate)” value is given as “low polyreactivity”.

In the case of “QVQLVESGGGLVQAGGSLRLSCAASGSIFEWYAMGWYRLAPGKERELVAVFSVRGGSTYYADSVKGRFTMSRENAKNTVYLQMNSLKPEDTAVYYCAADRVAPYYGHKRFYSGGQGTQVTVSS”, the “polyreactivity (PSR sort gate)” value is reported as “high polyreactivity”.

Regarding “QVQLVESGGGLVQAGGSLRLSCAASGSIFEWYAMGWYRQAPGKERELVAAINSGGSTYYADSVKGRFTISRDNAKNTVYLQMNSLKPEDTAVYYCNADTLLQDRLGDWYDYDYWGQGTQVTVSS”, the “polyreactivity (PSR sort gate)” value is reported as “low polyreactivity”.

In the case of “QVQLVESGGGLVQAGGSLRLSCAASGSIFEYNAMGWYRQAPGKERELVAAITRGGNTYYADSVKGRFTISRDNAKNTVYLQMNSLKPEDTAVYYCAAVQWYGYPYYSWGQGTQVTVSS”, the “polyreactivity (PSR sort gate)” value is listed as “low polyreactivity”.

For the sequence “QVQLVESGGGLVQAGGSLRLSCAASGSIFEYYAMGWYRQAPGKERELVAAISTGGSTYYADSVKGRFTISRDNAKNTVYLQMNSLKPEDTAVYYCAAEDYHPGADTVGTGYDYWGQGTQVTVSS”, the “polyreactivity (PSR sort gate)” value is “low polyreactivity”.

For the sequence “QVQLVESGGGLVQAGGSLRLSCAASGSIFEYYTMGWYRQAPGKERELVAGISWSGGSTYYADSVKGRFTISRDNAKNTVYLQMNSLKPEDTAVYYCAARSRSGRQEYYYWGQGTQVTVSS”, the “polyreactivity (PSR sort gate)” value is “high polyreactivity”.

Consider “QVQLVESGGGLVQAGGSLRLSCAASGSIFFAYAMGRYRQAPGKERELVAAITSGVSTNYADSVKGRFTISRDNAKNTVYLQMNILKPEDTAVYFCNADFDYGFDAGVAVQVVINVYWGQGTEVTVSS”, for which the “polyreactivity (PSR sort gate)” value is recorded as “low polyreactivity”.

Turning to “QVQLVESGGGLVQAGGSLRLSCAASGSIFFAYSMGWYRQAPGKERELVAAISWSDGSTYYADSVKGRFTISRDNAKNTVYLQMNSLKPEDTAVYYCDKVYRSIGPNVSRYGLSYYYWGQCTQVTVSS”, the “polyreactivity (PSR sort gate)” value is recorded as “low polyreactivity”.

Regarding “QVQLVESGGGLVQAGGSLRLSCAASGSIFFDGNAMGWYRQAPGKERELVAAISVSGGSTYYADSVKGRFTISRDNAKNTVYLQMNSLKPEDTAVYYCAKYPSKSYVPGDYWGQGTQVTVSS”, the “polyreactivity (PSR sort gate)” value was “low polyreactivity”.

As to “QVQLVESGGGLVQAGGSLRLSCAASGSIFFEYAMGWYRQAAGKERELVAAIDVGGGGTDYADSVKGRFTISRDNAKNTVYLQMNSLKPEDTAVYYCAAQDYYYFGIGASYDYWGQGTQVTVSS”, the “polyreactivity (PSR sort gate)” value is “low polyreactivity”.

Consider “QVQLVESGGGLVQAGGSLRLSCAASGSIFFFNAMGWYRQAPGKVREFVAAITSSSGRTYYADSVKGRFTISRDNAKNTVYLQMNSLKPEDTAVYYCAAQVPEDTETVDYWGQGTQVTVSS”, for which the “polyreactivity (PSR sort gate)” value is on record as “low polyreactivity”.

Regarding “QVQLVESGGGLVQAGGSLRLSCAASGSIFFGNAMGWYRQAPGKERELVAAISTTGGSTYYADSVKGRFTISRDNEKNTVYLQMNSLKPEDTAVYYCNADRATWWEQWWYDYWGHGTQVTVSS”, the “polyreactivity (PSR sort gate)” value is given as “low polyreactivity”.

With “QVQLVESGGGLVQAGGSLRLSCAASGSIFFINAMGWYRQAPGKERELVAAISSGGTTYYADSVKGRFTISRDNAKNTVYLQMNSLKPEDTAVYYCNAAGFPYAHTFFKGLVEYDSWGQGTQVTVSS”, the “polyreactivity (PSR sort gate)” value is listed as “low polyreactivity”.

For “QVQLVESGGGLVQAGGSLRLSCAASGSIFFLYAMGWYRQAPGKEWELVAAISGGGGSTYYADSVKGRFTISRDNAKNTVYFQMNCLKPEDTAVYNSAARTRVTKREYDYWGQGTQVTVSS”, the “polyreactivity (PSR sort gate)” value was “high polyreactivity”.

On to “QVQLVESGGGLVQAGGSLRLSCAASGSIFFLYARGWYRQAPGKERELVAAISRSGGNTYYADSVKGRFTISRDNAKNSVYLQMNSLKPEDTAVYYCAADGVHRGGRGGYWGQGTQVTVSS”, for which the “polyreactivity (PSR sort gate)” value is “high polyreactivity”.

As for “QVQLVESGGGLVQAGGSLRLSCAASGSIFFPNAMGWYRQAPGKERELVAAINWSGDSTYYADSVKGRFTISRDNAKNTVYLQMNSLKPEDTAVYYCNATYPWFDYDYWGQGTQVTVSS”, the “polyreactivity (PSR sort gate)” value is on record as “low polyreactivity”.

In the case of “QVQLVESGGGLVQAGGSLRLSCAASGSIFFPYAMGWSRQAPGKERELVAAITYGGGSTYYADSVKGRFTISRDNAKNTVYLQMNSLIPEDTAVYYCAAAVSYWRHGYQLSYDYWGQGTQVTVSS”, the “polyreactivity (PSR sort gate)” value is reported as “high polyreactivity”.

As to “QVQLVESGGGLVQAGGSLRLSCAASGSIFFPYAMGWYRQAPGKERELVAAISWRGGITYYADSVKGRFTISRDNAKNTVYLQMNSLKPEDTAVYYCAADGPYTGDGALDYWGQGTQVTVSS”, the “polyreactivity (PSR sort gate)” value is reported as “high polyreactivity”.

For “QVQLVESGGGLVQAGGSLRLSCAASGSIFFPYAMGWYRQAPGKERELVAAISYSGTSTYYADSVKGRFTISRDNAKNTVYLQMNSLKPEDTAVYYCAAYSRYYASYDYWGQGTQVTVSS”, the “polyreactivity (PSR sort gate)” value is “high polyreactivity”.

In the case of “QVQLVESGGGLVQAGGSLRLSCAASGSIFFQNAMGWYRQAPGKESEFVAAITWRGASTYYADSVKGRFTISRDNATNTVYLQMNSLKPEDTAVYYCAARQHYYYGWYYYWGQGTQVTVSS”, the “polyreactivity (PSR sort gate)” value was “high polyreactivity”.

On to “QVQLVESGGGLVQAGGSLRLSCAASGSIFFRNAMGWYRQAPGKERELVAAITFSGGRTYYADSVKGRFTISRDTANNTVYLQMNSMKPEDTAVYYCAGRRSYTYARYDYWGQGTQVTVSS”, for which the “polyreactivity (PSR sort gate)” value was “high polyreactivity”.

With “QVQLVESGGGLVQAGGSLRLSCAASGSIFFRYAMGWYRQAPGKERELVAAISSSGGSTYYADSVKGRFTISRDNAKNTVYLQMNSLKPEDTAVYYCAARYYRKYYYSPFDYWGQGTQVTVSS”, the “polyreactivity (PSR sort gate)” value is given as “high polyreactivity”.

As for “QVQLVESGGGLVQAGGSLRLSCAASGSIFFRYATMGWYRHAPGKESELVAAISRSGGSTYYADSVKGRFTISRDNGKNTVYLQMNSLKPEDTAVYYCAKVSPSLRASGYDYWGQGTQLTVSS”, the “polyreactivity (PSR sort gate)” value is listed as “high polyreactivity”.

Turning to “QVQLVESGGGLVQAGGSLRLSCAASGSIFFSNAMGWYRQAPGKERELVAAITSTGGSTYYADSVKGRFTISRDNAKNTVDLQMNSLKPEDTAVYYCAAASRRGYYYWGQGTQVTVSS”, the “polyreactivity (PSR sort gate)” value is recorded as “high polyreactivity”.

For “QVQLVESGGGLVQAGGSLRLSCAASGSIFFSNTMGWYRQAPGKERELVASIRETAGSTNYADSLKGRFTISRDYAKITVYLQMHSLKPEDTAVYYCAARYSPTRYHYGYWGQGTQVTVSS”, the “polyreactivity (PSR sort gate)” value was “low polyreactivity”.

Turning to “QVQLVESGGGLVQAGGSLRLSCAASGSIFFSNTMGWYRQAPGKERELVASITGDSSTNYADSVKGRFTISRDNAKNTVYLQMNSLKPEDTAVYYCNAGRVLRYVGHYSGDLEYWGQGTQVTVSS”, the “polyreactivity (PSR sort gate)” value is “low polyreactivity”.
